Molecular target: T1, recombinant human LRP6-Fc chimera (human, UniProt O75581 20-1370)
T1 construct: extracellular domain; also called ECD of human LRP6; not shown: Fc part of the chimera
T1 sequence (looked up): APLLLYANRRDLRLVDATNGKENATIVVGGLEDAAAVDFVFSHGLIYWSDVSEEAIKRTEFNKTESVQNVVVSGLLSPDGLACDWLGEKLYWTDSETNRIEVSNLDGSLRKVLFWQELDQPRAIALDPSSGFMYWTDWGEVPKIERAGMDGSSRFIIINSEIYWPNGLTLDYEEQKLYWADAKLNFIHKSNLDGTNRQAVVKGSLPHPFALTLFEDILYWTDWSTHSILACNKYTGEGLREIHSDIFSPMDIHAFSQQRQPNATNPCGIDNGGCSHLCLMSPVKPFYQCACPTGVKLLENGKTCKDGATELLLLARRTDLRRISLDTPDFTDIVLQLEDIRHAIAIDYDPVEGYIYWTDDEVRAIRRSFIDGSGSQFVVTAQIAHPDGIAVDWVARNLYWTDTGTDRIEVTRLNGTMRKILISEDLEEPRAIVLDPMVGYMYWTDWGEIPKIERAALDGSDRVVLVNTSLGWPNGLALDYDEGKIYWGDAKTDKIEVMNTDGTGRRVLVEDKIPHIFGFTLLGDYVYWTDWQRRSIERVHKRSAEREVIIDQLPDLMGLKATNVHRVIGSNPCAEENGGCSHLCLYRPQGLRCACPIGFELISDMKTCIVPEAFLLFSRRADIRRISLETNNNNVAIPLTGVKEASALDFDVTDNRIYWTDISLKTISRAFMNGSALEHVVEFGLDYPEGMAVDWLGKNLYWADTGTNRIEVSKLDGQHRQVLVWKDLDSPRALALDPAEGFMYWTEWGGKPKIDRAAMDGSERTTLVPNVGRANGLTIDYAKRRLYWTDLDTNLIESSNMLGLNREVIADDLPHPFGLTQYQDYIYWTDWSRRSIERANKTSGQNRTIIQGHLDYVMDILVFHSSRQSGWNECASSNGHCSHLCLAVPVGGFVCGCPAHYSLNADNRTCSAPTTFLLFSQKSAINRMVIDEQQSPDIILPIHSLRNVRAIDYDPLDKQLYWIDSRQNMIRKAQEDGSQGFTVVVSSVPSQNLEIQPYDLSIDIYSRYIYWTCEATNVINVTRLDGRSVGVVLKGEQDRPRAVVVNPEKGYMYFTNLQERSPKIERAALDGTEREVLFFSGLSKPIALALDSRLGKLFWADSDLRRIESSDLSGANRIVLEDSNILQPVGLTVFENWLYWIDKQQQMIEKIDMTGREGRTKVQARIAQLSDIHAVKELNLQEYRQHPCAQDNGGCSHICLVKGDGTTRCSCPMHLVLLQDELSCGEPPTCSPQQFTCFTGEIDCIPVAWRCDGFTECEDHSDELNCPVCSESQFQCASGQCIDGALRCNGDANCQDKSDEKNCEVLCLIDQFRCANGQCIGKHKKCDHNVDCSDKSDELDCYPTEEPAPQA
Test: multipoint competitive ELISA, IgG1; varied competitor printed as recombinant human LRP6-Fc chimera, while paragraph 283 says 'the recombinant antigen'
Source text: The full length IgG1s and the antibody fragments (Fabs) were purified and a single-point ELISA was done to determine the specificity of the antibodies. […] A multipoint competitive ELISA was used to determine the relative affinities of the antibodies to the recombinant antigen.
Table 3 reports the IC50 of LRP5 antibodies as determined by competitive ELISA. The log of the recombinant human LRP6-Fc chimera concentration (x-axis) was plotted against the OD450 reading of the antibody (y-axis). The IC50 was determined by non-linear regression analysis.

B1: LRP5-H5 (antibody, V domains shown)
VH: EVQLVESGGGLVQPGGSLRLSCAASGFNLSYSSIHWVRQAPGKGLEWVASISSSYGSTSYADSVKGRFTISADTSKNTAYLQMNSLRAEDTAVYYCARGYWAIDYWGQGTLVTVSS
VL: DIQMTQSPSSLSASVGDRVTITCRASQSVSSAVAWYQQKPGKAPKLLIYSASSLYSGVPSRFSGSRSGTDFTLTISSLQPEDFATYYCQQPVGHYGYPITFGQGTKVEIKR
notes: Fab-phage in the screen
- IC50: 4.44 nM

Source: patent US20230183336A1 (MODMAB THERAPEUTICS, published 2023)
